Laboratory results reported in the RNAGym collection of RNA variant scans (doi:10.1073/pnas.2313332121).
Fewer inactive variants are shown than the library holds.

B1: TPR 5TU (parent)
chain: GGAUCUUCUCGAUCUAACAAAAAAGACAAAUCUGCCACAAAGCUUGAGAGCAUCUUCGGAUGCAGAGGCGGCAGCCUUCGGUGGCGCGAUAGCGCCAACGUUCUCAACUAUGACACGCAAAACGCGUGCUCCGUUGAAUGGAGUUUAUCAUG

Variants of: B1
Assay: polymerase ribozyme fitness, log enrichment relative to wild type (log ratio); higher = more active; in vitro selection for triplet polymerase activity
Procedure, shortened: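 Mutant libraries were PCR-built and transcribed for each subunit of a heterodimeric triplet polymerase ribozyme and selected for one round in triplicate at −7 °C, frozen, before gel excision of extended constructs and streptavidin-bead capture. Input and output libraries were Illumina-sequenced, keeping genotypes with ≥10 input reads and ≥1 read per output. Fitness is a logarithmic ratio of genotype to wild-type enrichment, in base 2, using inverse-variance-weighted replicate averages.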

| Variant | polymerase ribozyme fitness (log ratio) |
| --- | --- |
| C32G A47C G74C C116U C132A A138U | ≤ -4.2 |
| U31C U33C G50U C76U G83C | ≤ -4.2 |
| C32A G88C G141C | ≤ -4.2 |
| C32U A89U | -2.63 |
| C32U U61A G74U C99G | ≤ -4.2 |
| U33C C87G G152A | ≤ -4.2 |
| U33A U61A | -3.64 |
| C32A A89C C95A | ≤ -4.2 |
| U31C C57G C87U U102A G136A | -0.199 |
| C32G C51U G94U | ≤ -4.2 |
| U31C C99G C103U | -0.958 |
| C32U C54U | -1.22 |
| C32G G48C U53C U82G | ≤ -4.2 |
| C32A C38U G128C U135A | ≤ -4.2 |
| C32U C85A C99G G133C U139G | ≤ -4.2 |
| U31G U56A G136A A147C | -0.143 |
| U31C U55A U101C | 0.401 |
| C32U C51A A52U C96G G136U | ≤ -4.2 |
| C32G A37C G140C | ≤ -4.2 |
| C32U C85U A89C A138C | ≤ -4.2 |
| U33A G74A | ≤ -4.2 |

| Variant | polymerase ribozyme fitness (log ratio) |
| --- | --- |
| U33C C36A U55A G83A A89G A142U U148C | ≤ -4.2 |
| C32U G59U G81A | -3.13 |
| C32G G59C G71C C85A G88A U151A | ≤ -4.2 |
| U33A C96A | ≤ -4.2 |
| C32U C36A U55A U77G A91U G140U | -3.95 |
| U31G C95U | 0.463 |
| U31G C95A | 0.165 |
| U31C U56A G58C A98U C149U | 0.414 |
| C32U A49C U55A G81A C85U U90A A106U A121U C125A | ≤ -4.2 |
| U33C C63U C99U A142G | ≤ -4.2 |
| U33A C76G G84C C85G C87G A89G G136C U145A | ≤ -4.2 |
| U31G U55A A142U | -1.54 |
| U31C C54A C93G | ≤ -4.2 |
| U31G C54A C95A A142U | -3.34 |
| C32G C57U C95U A142C U144G | ≤ -4.2 |
| U33C C69U | -0.0558 |
| U33A G50C A52C C87A C96U C105U U127G U144A | ≤ -4.2 |
| C32A C87U | -3.44 |
| C32A U82C | ≤ -4.2 |
| U31C C36A C96U A150G | ≤ -4.2 |
| C32G A49C A142U | ≤ -4.2 |

| Variant | polymerase ribozyme fitness (log ratio) |
| --- | --- |
| C32G G83A C85G C108G G124A U135G | ≤ -4.2 |
| U31C C79G U139C U144G | ≤ -4.2 |
| C32U U33G C38U C54U U77A A107U | -3.74 |
| U31C A47U G88A C108A | ≤ -4.2 |
| C32U G84A | -2.55 |
| C32G C85G U90G C118A G133U G140C C149G | ≤ -4.2 |
| U33C C43U G126U | ≤ -4.2 |
| U31G U53G G70U A89U C93U C114A C123G U135C G152U | ≤ -4.2 |
| U31C C87A | -4.2 |
| U31C G86U C96U | -0.694 |
| U31C U55A G136U A150G | -1.81 |
| C32A A40C G84A | ≤ -4.2 |
| C32G G92U U127G G152U | -3.98 |
| U33A C85U | -3.79 |
| C32U U33A U151A | -4.18 |
| U31C A121C U134A | -1.76 |
| U33C C35G C36G G50C G94U | ≤ -4.2 |
| U33A C75G C76A A142G | ≤ -4.2 |
| C32G G48U G68A U134A U145C | ≤ -4.2 |
| C32U A40C C85G C103A | ≤ -4.2 |
| U31G G58A C85A C114G A115U | -4.05 |

| Variant | polymerase ribozyme fitness (log ratio) |
| --- | --- |
| C32G U61A G92U C131U | ≤ -4.2 |
| C32G C99U | ≤ -4.2 |
| U31C G42A U44G A60G A66G U82A C85A G128A | ≤ -4.2 |
| C32U G83U G126A | -4.19 |
| U31G C35U A60U A115G | -3.22 |
| C32G C51U U53A G94A U101A A122G | ≤ -4.2 |
| U33A A41C C87A U130G A147G | ≤ -4.2 |
| U33A U44A G46U G59A C93G C103U U104A U135A C149G | ≤ -4.2 |
| C32A G84U A97G C131U U139C | ≤ -4.2 |
| U31A U90G | ≤ -4.2 |
| C32U C85U | -1.97 |
| U31G C32U C75G A98G A121C G133A | ≤ -4.2 |
| C32A A39U C79A C85A C129G | ≤ -4.2 |
| U33C C95U | -2.01 |
| U33A U56A C75G G81U G83A U127A | ≤ -4.2 |
| C32G A47C U55A U56G G67U G88A G100C C105U A137U G141U | ≤ -4.2 |
| C32G A91C U139G | ≤ -4.2 |
| C32G G42C A49U G94C C95A G126A | -3.97 |
| C32A C87A C93U | ≤ -4.2 |
| C32G A49U G74U U77G A89U | ≤ -4.2 |
